“And” between values parts separate entries of the source, which are not always exact repeats. Equal entries are not always repeated. Blank lines part the entries; values can stand above or below the molecule they belong to.
How the values were obtained:
[1] = tested on: macrophages co-cultured with Toledo lymphoma cells; assay: qRT-PCR of macrophages sorted from Toledo lymphoma co-cultures; type: cell-based, human; settings: qRT-PCR on macrophages isolated by FACS from Toledo co-cultures
Description: FIG. 8D: Macrophage:Toledo lymphoma co-cultures were harvested 2 hours into phagocytosis assays in the presence of rituximab ([…]), SIRPα-Fc-CD40L ([…]), or the combination of both agents. Macrophages were isolated by CD11b+FACS, RNA was prepared, cDNA synthesized, and gene expression (IFNa1, IFNb1, CD80, and CD86) assessed by qRT-PCR. Fold change was calculated using DDCT and values obtained from the housekeeping gene ACTB, and the corresponding values from untreated samples. […] After 2 hours, co-cultures were isolated from tissue culture vessels and were stained with a fluorescently conjugated CD11b antibody to discriminate macrophages. Cells were then assessed by flow cytometry for the co-localization of fluorescent signal from both cells types. […] After 24-hours type I interferon induced luminescence was assessed using a luminometer. The maximum luminescence (RLU) from each experiment was set to 1, and all other samples were normalized accordingly. […]
RNA was prepared from macrophages isolated using fluorescent activated cell sorting (FACS) from SIRPα-Fc-CD40L/Rituximab treated co-cultures macrophages and Toledo lymphoma cells. The RNA was assessed by gRT-PCR for expression of IFNα1 and IFNβ1, and the macrophage activation markers CD80 and CD86.

[2] = target: recombinant human CD40 (human) (UniProt P25942); assay: SPR
tumors = assay: Mouse tumor model, SIRPα-Fc-OX40L and checkpoint antibodies (Example 14)
FcγR-Ia = FcγR-Ia (Homo sapiens, UniProt P12314); assay: SPR
recombinant mouse CD40 = target: T1, recombinant mouse CD40 (mouse, UniProt P27512 20-193, limits assumed); assay: dual ELISA: coat mCD47-Fc, titrated mSIRPα-Fc-CD40L, detect mCD40-His, tertiary anti-his-HRP, OD450. This is the same curve as the CD47 row. mCD40-His is the detecting receptor.
T1 construct: also called murine CD40

recombinant mouse CD47 = target: T2, recombinant mouse CD47 (mouse, UniProt Q61735 19-140, limits assumed); assay: dual ELISA: coat mCD47-Fc, titrated mSIRPα-Fc-CD40L, detect mCD40-His, tertiary anti-his-HRP, OD450. Signal needs both CD47 and CD40 to be bound.
T2 construct: also called murine CD47
T2 sequence (looked up): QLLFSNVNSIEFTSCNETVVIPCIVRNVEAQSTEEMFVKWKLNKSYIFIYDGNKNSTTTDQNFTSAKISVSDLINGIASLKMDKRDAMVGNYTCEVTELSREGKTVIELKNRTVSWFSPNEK

recombinant human CD40 (human), sequence (P25942 21-193 limits assumed): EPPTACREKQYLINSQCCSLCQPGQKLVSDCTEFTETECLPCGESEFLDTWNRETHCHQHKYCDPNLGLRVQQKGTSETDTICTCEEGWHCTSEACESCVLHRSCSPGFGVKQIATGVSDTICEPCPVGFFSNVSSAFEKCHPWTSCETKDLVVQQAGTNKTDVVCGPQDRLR
FcγR-Ia, sequence (P12314 16-288 limits assumed): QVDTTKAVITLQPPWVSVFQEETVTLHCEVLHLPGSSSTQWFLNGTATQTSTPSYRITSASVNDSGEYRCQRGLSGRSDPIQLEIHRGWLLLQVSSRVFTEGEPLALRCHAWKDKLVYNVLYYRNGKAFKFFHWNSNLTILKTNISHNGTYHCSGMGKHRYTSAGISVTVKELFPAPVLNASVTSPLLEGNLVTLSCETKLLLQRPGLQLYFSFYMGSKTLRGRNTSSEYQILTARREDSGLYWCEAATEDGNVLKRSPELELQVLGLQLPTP
T1 sequence (P27512 20-193 limits assumed): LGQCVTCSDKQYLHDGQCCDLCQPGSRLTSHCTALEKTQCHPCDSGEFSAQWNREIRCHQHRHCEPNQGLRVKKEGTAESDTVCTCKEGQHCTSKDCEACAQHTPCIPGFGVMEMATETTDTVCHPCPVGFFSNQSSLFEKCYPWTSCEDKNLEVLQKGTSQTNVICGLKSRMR

- Kd (FcγR-Ia): 8.42 nM
- koff (FcγR-Ia): 0.000156 s⁻¹
- kon (FcγR-Ia): 18400 M⁻¹ s⁻¹
Molecule: IgG1 (antibody)

- EC50 (recombinant mouse CD40): 7.37 nM and 8.73 nM
- EC50 (recombinant mouse CD47): 7.37 nM and 8.73 nM
B1: murine SIRPα-Fc-CD40L chimeric protein (Fc fusion)
chain: KELKVTQPEKSVSVAAGDSTVLNCTLTSLLPVGPIRWYRGVGPSRLLIYSFAGEYVPRIRNVSDTTKRNNMDFSIRISNVTPADAGIYYCVKFQKGSSEPDTEIQSGGGTEVYVLAKPSPPEVSGPADRGIPDQKVNFTCKSHGFSPRNITLKWFKDGQELHPLETTVNPSGKNVSYNISSTVRVVLNSMDVNSKVICEVAHITLDRSPLRGIANLSNFIRVSPTVKVTQQSPTSMNQVNLTCRAERFYPEDLQLIWLENGNVSRNDTPKNLTKNTDGTYNYTSLFLVNSSAHREDVVFTCQVKHDQQPAITRNHTVLGFAHSSDQGSMQTFPDNNATHNWNHRRLDKVEEEVNLHEDFVFIKKLKRCNKGEGSLSLLNCEEMRRQFEDLVKDITLNKEEKKENSFEMQRGDEDPQIAAHVVSEANSNAASVLQWAKKGYYTMKSNLVMLENGKQLTVKREGLYYVYTQVTFCSNREPSSQRPFIVGLWLKPSSGSERILLKAANTHSSSQLCEQQSVHLGGVFELQAGASVFVNVTEASQVIHRVGFSSFGLLKL

The next lines start with the molecule.

Molecule: rituximab: anti-CD20 antibody [reference compound]
- macrophage activation (CD80, CD86) and expression of type I interferon genes (IFNα1, IFNβ1) [1]: induced macrophage activation and the expression of type I interferon genes

Molecule: Fc-CD40L (Fc fusion)
- Kd [2]: 1.15 nM
- koff [2]: 0.000351 s⁻¹
- kon [2]: 304000 M⁻¹ s⁻¹

Molecule: SIRPα(CD172a)-Fc-OX40L: Chimeric protein: ECD of SIRPα and ECD of OX40L fused via an antibody Fc domain (human sequence SEQ ID NO: 61)
- tumor size (tumors; mouse, in vivo): effective in reducing tumor size
- survival (tumors; sixteenth day following treatment): had any survivors by the sixteenth day following treatment

— US20200071380A1, “COMBINATION THERAPIES COMPRISING SIRP ALPHA-BASED CHIMERIC PROTEINS” (Shattuck Labs, Inc., priority 2018, published 2020)
